Reference: publication PMC3024409, “Protein-Protein Interactions within Late Pre-40S Ribosomes” (PLoS ONE, 2011)

T1: (MBP-)Tsr1 (S. cerevisiae, UniProt Q07381 1-788)
T1 construct: Tsr1, S. cerevisiae; gene amplified from genomic DNA with primers from the start codon to the stop codon, cloned between SfoI and HindIII of pSV272; source: E. coli Rosetta, purified (Ni-NTA, MonoQ, gel filtration; TEV protease omitted); not shown: His6-MBP, N-terminal, kept
T1 sequence (looked up): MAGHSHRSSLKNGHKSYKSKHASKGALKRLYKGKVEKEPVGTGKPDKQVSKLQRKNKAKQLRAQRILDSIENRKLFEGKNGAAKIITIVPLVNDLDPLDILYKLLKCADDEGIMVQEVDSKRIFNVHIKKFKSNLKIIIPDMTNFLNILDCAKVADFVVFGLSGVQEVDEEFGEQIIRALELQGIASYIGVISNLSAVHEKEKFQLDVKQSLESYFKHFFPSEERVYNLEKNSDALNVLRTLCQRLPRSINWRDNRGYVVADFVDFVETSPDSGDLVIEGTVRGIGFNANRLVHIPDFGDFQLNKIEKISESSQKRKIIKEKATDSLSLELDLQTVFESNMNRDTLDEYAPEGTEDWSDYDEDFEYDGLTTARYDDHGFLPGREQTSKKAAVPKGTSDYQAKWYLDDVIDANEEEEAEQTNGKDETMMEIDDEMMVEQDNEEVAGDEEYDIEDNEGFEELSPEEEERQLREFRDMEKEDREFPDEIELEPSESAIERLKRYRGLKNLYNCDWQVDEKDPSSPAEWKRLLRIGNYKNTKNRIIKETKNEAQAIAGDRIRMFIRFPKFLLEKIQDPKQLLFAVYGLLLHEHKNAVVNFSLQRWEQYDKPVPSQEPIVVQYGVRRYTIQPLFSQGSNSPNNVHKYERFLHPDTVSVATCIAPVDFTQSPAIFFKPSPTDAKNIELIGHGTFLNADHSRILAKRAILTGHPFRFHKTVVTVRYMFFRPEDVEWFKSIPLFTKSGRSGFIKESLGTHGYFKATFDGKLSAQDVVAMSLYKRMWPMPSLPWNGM

T2: (MBP-)Enp1 (S. cerevisiae, UniProt P38333 1-483)
T2 construct: Enp1, S. cerevisiae; gene amplified from genomic DNA, cloned between SfoI and BamHI of pSV272; source: E. coli Rosetta, purified (Ni-NTA, MonoQ, gel filtration); not shown: His6-MBP, N-terminal, kept
T2 sequence (looked up): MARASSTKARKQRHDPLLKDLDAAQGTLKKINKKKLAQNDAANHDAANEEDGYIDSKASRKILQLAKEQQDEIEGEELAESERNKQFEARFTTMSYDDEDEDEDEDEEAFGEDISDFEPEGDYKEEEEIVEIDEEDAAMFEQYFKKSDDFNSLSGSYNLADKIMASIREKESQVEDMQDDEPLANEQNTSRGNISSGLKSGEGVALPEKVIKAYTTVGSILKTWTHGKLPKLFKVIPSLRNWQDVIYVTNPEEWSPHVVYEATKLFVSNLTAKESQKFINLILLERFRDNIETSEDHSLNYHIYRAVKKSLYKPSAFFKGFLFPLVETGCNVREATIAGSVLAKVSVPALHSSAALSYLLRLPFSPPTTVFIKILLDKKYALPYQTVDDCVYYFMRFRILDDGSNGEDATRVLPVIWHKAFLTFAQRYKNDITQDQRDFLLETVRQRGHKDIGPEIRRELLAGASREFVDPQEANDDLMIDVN

T3: Enp1 (untagged) (S. cerevisiae, UniProt P38333 1-483)
T3 construct: Enp1, S. cerevisiae; gene amplified from genomic DNA, cloned between SfoI and BamHI of pSV272; source: E. coli Rosetta, purified (Ni-NTA, TEV cleavage, MonoQ, gel filtration); not shown: His6-MBP, N-terminal, cleaved
T3 sequence (looked up): T2 sequence (looked up)

T4: (MBP-)Rio2 (S. cerevisiae, UniProt P40160 1-425)
T4 construct: Rio2, S. cerevisiae; gene amplified from genomic DNA with primers from the start codon to the stop codon, cloned between SfoI and BamHI of pSV272; 93 kDa as printed; source: E. coli Rosetta, purified (Ni column, MonoQ, gel filtration); not shown: His6-MBP, N-terminal, kept
T4 sequence (looked up): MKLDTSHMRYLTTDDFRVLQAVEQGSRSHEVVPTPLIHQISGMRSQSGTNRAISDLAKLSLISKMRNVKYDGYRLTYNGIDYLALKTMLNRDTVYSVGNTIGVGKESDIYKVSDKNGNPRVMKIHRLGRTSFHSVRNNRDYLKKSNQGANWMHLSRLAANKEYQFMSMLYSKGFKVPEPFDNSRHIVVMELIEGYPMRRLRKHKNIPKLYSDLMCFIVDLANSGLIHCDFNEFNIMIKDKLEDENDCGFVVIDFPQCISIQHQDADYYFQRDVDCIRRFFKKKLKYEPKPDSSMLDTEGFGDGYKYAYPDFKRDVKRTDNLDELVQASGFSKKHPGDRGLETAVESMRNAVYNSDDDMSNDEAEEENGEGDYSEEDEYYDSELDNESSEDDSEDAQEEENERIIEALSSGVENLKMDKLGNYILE

B1: Rio2 (untagged) (enzyme, S. cerevisiae, UniProt P40160 1-425, looked up)
chain: T4 sequence (looked up)
notes: Rio2, S. cerevisiae; Cloning into the NheI site of pET23a may leave a few vector residues before the first methionine; also called kinase Rio2; protein kinase Rio2; source: E. coli Rosetta, purified (Hi-Trap Q, MonoQ, gel filtration)
B2: (MBP-)Rps15 (natural protein, S. cerevisiae, UniProt Q01855 2-142, looked up)
chain: SQAVNAKKRVFKTHSYRGVDLEKLLEMSTEDFVKLAPARVRRRFARGMTSKPAGFMKKLRAAKLAAPENEKPAPVRTHMRNMIIVPEMIGSVVGIYNGKAFNQVEIRPEMLGHYLGEFSITYTPVRHGRAGATTSRFIPLK
notes: ribosomal protein Rps15, S. cerevisiae; gene amplified from genomic DNA, cloned between SfoI and HindIII of pSV272; source: E. coli Rosetta, purified (Ni-NTA, MonoQ, gel filtration); not shown: His6-MBP, N-terminal, kept
B3: Ltv1 (untagged) (natural protein, S. cerevisiae, UniProt P34078 1-463, looked up)
chain: MSKKFSSKNSQRYVVVHRPHDDPSFYDTDASAHVLVPVSNPNKTSPEADLRKKDVSSTKPKGRRAHVGEAALYGINFDDSEYDYTQHLKPIGLDPENSIFIASKGNEQKVEKKNIEDLFIEPKYRRDEIEKDDALPVFQRGMAKPEYLLHQQDTTDEIRGFKPDMNPALREVLEALEDEAYVVNDDVVVEDISKKTQLQGDNYGEEEKEDDIFAQLLGSGEAKDEDEFEDEFDEWDIDNVENFEDENYVKEMAQFDNIENLEDLENIDYQADVRRFQKDNSILEKHNSDDEFSNAGLDSVNPSEEEDVLGELPSIQDKSKTGKKKRKSRQKKGAMSDVSGFSMSSSAIARTETMTVLDDQYDQIINGYENYEEELEEDEEQNYQPFDMSAERSDFESMLDDFLDNYELESGGRKLAKKDKEIERLKEAADEVSKGKLSQRRNRERQEKKKLEKVTNTLSSLKF
notes: Ltv1, S. cerevisiae; gene amplified from genomic DNA with primers from the start codon to the stop codon, cloned between SfoI and BamHI of pSV272; also called export adaptor Ltv1; source: E. coli Rosetta, purified (Ni-NTA, TEV cleavage, MonoQ, gel filtration); not shown: His6-MBP, N-terminal, cleaved
B4: (MBP-)Ltv1 (natural protein, S. cerevisiae, UniProt P34078 1-463, looked up)
chain: B3 chain
notes: Ltv1, S. cerevisiae; gene amplified from genomic DNA with primers from the start codon to the stop codon, cloned between SfoI and BamHI of pSV272; source: E. coli Rosetta, purified (Ni-NTA, MonoQ, gel filtration; TEV protease omitted); not shown: His6-MBP, N-terminal, kept
B5: (MBP-)Dim1 (enzyme, S. cerevisiae, UniProt P41819 1-318, looked up)
chain: MGKAAKKKYSGATSSKQVSAEKHLSSVFKFNTDLGQHILKNPLVAQGIVDKAQIRPSDVVLEVGPGTGNLTVRILEQAKNVVAVEMDPRMAAELTKRVRGTPVEKKLEIMLGDFMKTELPYFDICISNTPYQISSPLVFKLINQPRPPRVSILMFQREFALRLLARPGDSLYCRLSANVQMWANVTHIMKVGKNNFRPPPQVESSVVRLEIKNPRPQVDYNEWDGLLRIVFVRKNRTISAGFKSTTVMDILEKNYKTFLAMNNEMVDDTKGSMHDVVKEKIDTVLKETDLGDKRAGKCDQNDFLRLLYAFHQVGIHFS
notes: Dim1, S. cerevisiae; gene amplified from genomic DNA with primers from the start codon to the stop codon, cloned between SfoI and HindIII of pSV272; source: E. coli Rosetta, purified (Ni-NTA, MonoS, gel filtration; no TEV protease); not shown: His6-MBP, N-terminal, kept
B6: Dim1 (untagged) (enzyme, S. cerevisiae, UniProt P41819 1-318, looked up)
chain: B5 chain
notes: Dim1, S. cerevisiae; gene amplified from genomic DNA with primers from the start codon to the stop codon, cloned between SfoI and HindIII of pSV272; also called methylase Dim1; source: E. coli Rosetta, purified (Ni-NTA, TEV cleavage, MonoS, gel filtration); not shown: His6-MBP, N-terminal, cleaved

Key:
Assay in all cases: pull-down; 3 µM MBP-tagged bait and 5 µM untagged prey in 50 mM HEPES pH 7.5, 150 mM KCl; 10 min at room temperature, 1 h at 4°C with amylose resin; washed, eluted with 20 mM maltose; SDS-PAGE, Coomassie
Conditions in all cases: both partners purified
(MBP-)Tsr1 = molecular target: T1, (MBP-)Tsr1
Rio2 (untagged) = molecular target: B1
Ltv1 (untagged) = molecular target: B3
(MBP-)Enp1 = molecular target: T2, (MBP-)Enp1
Enp1 (untagged) = molecular target: T3, Enp1 (untagged)
(MBP-)Rio2 = molecular target: T4, (MBP-)Rio2

Binder: B1
binding result ((MBP-)Tsr1): binds

Binder: B2
binding result (Rio2 (untagged)): binds | binding result (Ltv1 (untagged)): binds

Binder: B3
binding result ((MBP-)Enp1): binds

Binder: B4
binding result (Enp1 (untagged)): binds

Binder: B5
binding result (Rio2 (untagged)): binds

Binder: B6
binding result ((MBP-)Rio2): binds
